Assay results reported in the supplement of paper PMC9170038.

Tested on: MS2 coat protein
Assay: apparent KD of MS2 coat protein; higher = weaker reporter binding
Settings: Eterna round: R107
Summary of the method: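 Designed RNA switches, transcribed on-chip from Illumina sequencing clusters, were titrated with SNAP-549-labelled MS2 coat protein from 0.7 or 1.5 nM to 3 µM in twofold steps. The solution was 100 mM Tris-HCl pH 7.5, 80 mM KCl, 4 mM MgCl2, with constant ligand or without it. Apparent KD is the median over each design's normalised cluster binding-curve fits.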

[1] = input ligand: theophylline 20 uM
[2] = input ligand: theophylline 2 mM
[3] = input ligand: tryptophan 2.4 mM

Sequence | apparent KD of MS2 coat protein (input ligand: arginine 13.2 mM) | apparent KD of MS2 coat protein (input ligand: none) | apparent KD of MS2 coat protein [1] | apparent KD of MS2 coat protein [2] | apparent KD of MS2 coat protein [3]
AGAUUUAUUUUGACCGGGCUCAUUCCUGAAGGAGCGCAGAACAAUGCAGGUAGGUCGCAGGACAUGAGGAUCACCCAUGUCAAGC [Isaes] | 14.2 nM | 20.7 nM | 18.3 nM | 19.9 nM | 18.8 nM
ACAUGAGGAUCACCCAUGUACAUAAGGGAAGGAGCGCGGUGAAACGCAGGUAGGUCGCCCAUAAUAACAAACAUUAAAUUCAUGU [LeftA2] | 28 nM | 14.3 nM | 18.6 nM | 17.9 nM | 16.6 nM
GCCUCCAGCCGAAGGAGCGCUAGAAGGUGACAUGAGGAUCACCCAUGUGUGUGAUGUGGCUAGCAGGUAGGUCGCGGAGGAGGUA [Exclusion - Arginine B (Freestyle 21)] | 118 nM | 99.7 nM | 134 nM | 111 nM | 92 nM
ACAUGAGGAUCACCCAUGUAUUACCGGGAAGGAGCGGCCGCAAGGCCAGGUAGGUCGCUCGGUGUCGUGCUGUAAAGCACGACAA [#1 Same State - Arginine A Attempt #29 (HarryS)] | 11.9 nM | 10.2 nM | 16.7 nM | 11.5 nM | 9.61 nM
ACCAUGUAAUCAGAUACCAGACAUCUUUUAAAUCAUAUUACAUGAGGAUCACCCAUGUUGGUCCCUUGGCAGCUGAAAUAUUUCA [JR_Nu_SSTheophyB_Sub025] | 144 nM | – | 351 nM | – | 529 nM
GCUAGGUCUACGGCCGCCACUAGACGUGGGUAAGACAUGAGGAUCACCCAUGUACUACGGGCGAUUAGGACCGGGUAGACCUAGC [SSTB NP+V+V2 #16 Same Structure] | 50.5 nM | 309 nM | 527 nM | 646 nM | 66.9 nM
AGCUCGCAUCCUCUAGCGUCAAAGACGCGUCGAGGACCGGUACGGCCGCCACUCGACUUGAGGAUCACCCAAGUCUAAGCGAGCA [TrypAX 11 #SwitchBubble #AlternativeMS2 #MS2Late #CuTurnoff] | 54.8 nM | 92.6 nM | 91.1 nM | 215 nM | 488 nM
GCAUGUGGAGUCUUACUAGAGAGGACAGAUACCAGUAAGAUGUGAUACCCUUGGCAGCUGCGAUUUACAUGAGGAUCACCCAUGU [X-TheoA-ms2@67] | 19.2 nM | – | 21.4 nM | – | 24.7 nM
CAAACAUGAGGAUCACCCAUGUAAUCAGAUACCAGUGACGAAAGUCACCCUUGGCAGCUGAGUACAUUAGUUCUAAGGUGUUUGA [EThA NP+V+V2 #6 +-Same Structure] | 32.7 nM | – | 61 nM | – | 35.7 nM
AGAUGACACAGUGGAUAGCAAGAUGCCGAUACCAGCUAGGAAACUAGCCCUUGGCAGCGGUACAUGAGGAUCACCCAUGUAUCCU [EThA NP+V+V2 #10] | 12.4 nM | – | 15.1 nM | – | 13.4 nM
AAAGGUCGCAAUAAAUCUCCUACAUGUGAAGGAGCGCGCGAAAGCGCAGGUAGGUCGCACAUGAGGAUCACCCAUGUGAGCGACC [MAT - Exclusion Arginine A - Mod of Eli - D3] | 9.41 nM | 11.5 nM | 14.5 nM | 13.1 nM | 10.8 nM
GGGACAUGAGGAUCACCCAUGUACCGGUCCCGAGGACCGGUACGGCCGCCACUCGAUGACCUCAUAGUCUGCUGGAGCAGCAGAC [Usesedarin] | – | 54.6 nM | 108 nM | 84.3 nM | 330 nM
UAAUAAUCCAGGGUGUAGGUAAUAACAGAUACCAGCCAGAUAACUGGCCCUUGGCAGCUGAAAACCUGAGGAUCACCCAGGUAAA [TheoAS 23 #OpenEnded #MS2Late #AlternativeMS2] | 36.4 nM | 56.2 nM | 122 nM | 67.7 nM | 62.6 nM
ACACCGAAAGGUGCAUUUACCUUAUCAGAUACCAGACUUUACGUUGUCCCUUGGCAGCUGUAUCACAUGAGGAUCACCCAUGUUG [JR_SSTheophyA_Sub011] | 19.3 nM | – | 18.8 nM | – | 16.6 nM
UCGGACAUGAGGAUCACCCAUGUAAAUCCUCGAGGACCGGUACGGCCGCCACUCGAACGAGUGGCGCGCGAGUGCGCACUCGCGC [aFa] | 22.2 nM | 33.2 nM | 57.9 nM | 35.8 nM | 26.6 nM
GUACAUGAGGAUCACCCAUGUAUAGUUGAAGGAGCGACCGGUGGGUCAGGUAGGUCGCAGCGCAUGGCGUCCACGCGUGUAUGCC [#1 Exclusion - Arginine A Attempt #29 (Inspired by Pi)] | 10.3 nM | 12.3 nM | 17.1 nM | 11.1 nM | 11.9 nM
CGGUCGGUCGGUCGGUGAUUAUGGGAUGAAGGAGCGUGGGAAGCUACAGGUAGGUCGCAUCCGAAACAUGAGGAUCACCCAUGUU [#21 Same State - Arginine A] | 24.6 nM | 21 nM | 26.8 nM | 21.3 nM | 18.5 nM
AACAACAAGGGAAGGAGCGCGAAUAAUAGACAUGAGGAUCACCCAUGUAUCAUGGGAUUAACGCAGGUAGGUCGCCCACAAACAA [#07 Exclusion - Arginine B] | 60.4 nM | 127 nM | 155 nM | 152 nM | 71.7 nM
GUCUCUGAGAGAAGGAGCGUGAAGACAUGAGGAUCACCCAUGUAGAGGCGCCGAAGGCGUUCGCAGGUAGGUCGCUCUCAGAGAC [#1 Same State - Arginine B Attempt #20 (HarryS)] | 15.2 nM | 15.5 nM | 23.8 nM | 17.5 nM | 18.4 nM

Sequence | apparent KD of MS2 coat protein (input ligand: arginine 13.2 mM) | apparent KD of MS2 coat protein (input ligand: none) | apparent KD of MS2 coat protein [1] | apparent KD of MS2 coat protein [2] | apparent KD of MS2 coat protein [3]
GAAUAAGAAUCGGCCGCCACUCACAUGAGGAUCACCCAUGUACAUGAGGAACAUGAAAAUCACCCGAGGACCGGGAUAUAUGUUC [Excluion - Tryptophan B #1] | 31.1 nM | – | 67.4 nM | 71.3 nM | –
AAAAUAAAACGUGCAAAAUCCUAAUGUGAAGGAGCGCACGAAAGUGCAGGUAGGUCGCACAUGAGGAUCACCCAUGUAGCACGAA [MAT - Exclusion Arginine A - Mod of Eli - D1] | 60.1 nM | 300 nM | 221 nM | 367 nM | 230 nM
UGGUAGGUAGGAAGGAGCGCAUACUUCACAUGAGGAUCACCCAUGUCGAGACGUGAGUCAGUGCAGGUAGGUCGCCUAGUUAUGA [Same State - Arginine B (Freestyle 23)] | 30.4 nM | 36.4 nM | 36.1 nM | 37.6 nM | 30.3 nM
GUCCUCAUGACGGCCGCCACUACACAUGAGGAUCACCCAUGUAAUGAUCCCUUAAAUGAUAAUAGUAGGACCGGGUCACUGUAAG [Same State Typptophan B GF12] | 119 nM | – | 569 nM | 743 nM | –
AGUCUGGACUCGGCCGCCACUCGUGAUGCUUUGGCACAUGAGGAUCACCCAUGUGGUCGGCCUUAGAGGACCGGGAGUACCAGCU [Zaraoned] | 38.6 nM | – | 65.9 nM | 61.3 nM | –
CCAUAGGGUAAAUACAUAAUCAUAUCUGAAGGAGCGUGGAUAAACACAGGUAGGUCGCAGAAUCACAUGAGGAUCACCCAUGUCU [Same State Arginine A GF11] | 24.5 nM | 36.1 nM | 53.5 nM | 52.6 nM | 36.5 nM
AGCAGAUCCCAGCGAAAGCUGGGAUCUGCACGAGGACCGGUACGGCCGCCACUCGAGGACAUGAGGAUCACCCAUGUACCGGUCA [Glorfindel] | 174 nM | 75.8 nM | 64.6 nM | 238 nM | 78.3 nM
GCACCAGGUACGGAUACCAGCUAUAGGUACAGCGGAGGACAUGAGGAUCACCCAUGUGGUAGCCCUUGGCAGCUGUACCUGGUGC [EThB NP+V+V2 #1 +-Same Structure] | 17.7 nM | 14.9 nM | 23.9 nM | 40.4 nM | 15.5 nM
AUCCUCAAGAAUGAUACCAGACCAAACAUGAGGAUCACCCAUGUAUCAGGCAAUUGUUACGUCCCUUGGCAGCAUGUAAGCCGAC [Theo B SS t2] | 35.5 nM | – | 70.2 nM | – | 39.2 nM
AAACGCCACGGAAGGAGCGACAUGAGGAUCACCCAUGUAGAUUUGGCGGAUGCACCCUCCUGUCAGGUAGGUCGCCGUGCGCUAA [XArg-B24] | 51.8 nM | 61 nM | 90.2 nM | 99.9 nM | 100 nM
AUGCAUAGCCGAAGGAGCGCAAUAGAAUGACAUGAGGAUCACCCAUGUGUGUGAUGUGGAUUGCAGGUAGGUCGCGGAGUGGUAU [Exclusion - Arginine B (Freestyle 4)] | 34.2 nM | 37.7 nM | 52.6 nM | 48.1 nM | 30.5 nM
UUGGUACAUGAGGAUCACCCAUGUACUGAAGGAGCGGGACGAAUCUCAGGUAGGUCGCAGACAUGAGGAUCACCCAUGUAUGGCU [Exclusion Arginine A GF 17] | 10.2 nM | 12.7 nM | 14.6 nM | 13.1 nM | 12.3 nM
GGUGGCGGGACUGAUACCAGCCACCACCGAUAGACCACAUGAGGAUCACCCAUGUUGGGUGGCCCUUGGCAGCAGUCUUGCGGCU [#1 Same State - Theophylline B Attempt #14 (HarryS)] | 46.8 nM | 797 nM | 523 nM | 163 nM | 739 nM
AACAUGAGGAUCACCCAUGUUUGCUAUGAAGGAGCGUCGGAAAUGACAGGUAGGUCGCAUGGUAGACCGAGUAUUAUCUGUAUGG [EAA NP+V+V2 #11] | 14.9 nM | 9.74 nM | 19.5 nM | 10.7 nM | 12.1 nM
CAAACAUGAGGAUCACCCAUGUAAACCGAAGGAGCGACGCAUAAGUCAGGUAGGUCGCGGAAGAUAAAAUAGAACACUGGGCACA [Same State Arginine A GF1] | 18.2 nM | 17.7 nM | 19.2 nM | 17.3 nM | 19.1 nM
CUUGUUUAUGGAAGGAGCGCGAUUACAUAACAUGAGGAUCACCCAUGUAAGAAAUUAUUCAUGCAGGUAGGUCGCCAUGGGUGGG [Same State Arginine B GF7] | 111 nM | 195 nM | 105 nM | 258 nM | 120 nM
CACAUGAGGAUCACCCAUGUCUGAACUGAAGGAGCGCUAAACAAGGCAGGUAGGUCGCGGAAUCCCGGGUGCAUAUGCACCCGGG [9.aA] | 50.4 nM | 23.9 nM | 23.2 nM | 23.4 nM | 21.4 nM
GCCGGACUUUCGGCCGCCACUGAGAGAGUCGUGUGAACAUGAGGAUCACCCAUGUAAUAUAUAUACAGGACCGGGAGGGUUCGGC [4.S] | 10.5 nM | 12.2 nM | 18.7 nM | 11.9 nM | 12 nM
GGGCAAGAGGGAAGGAGCGUCGGCUGGGUAACAUGAGGAUCACCCAUGUAGCACAUGGUGUGGCAGGUAGGUCGCCCUCUGCCCU [SS-ArgB9] | 71.1 nM | 102 nM | 153 nM | 133 nM | 103 nM
